Results from patent EP4703383A1 (Shenzhen Genuine Biomedical Technology Co., Ltd, dated 2026).

T1: extracellular segment of the PRLR protein of cynomolgus monkey with avi-(his)6 tag (cynoPRLR-ECD-avi-his) (cynomolgus monkey)
T1 construct: The assays say only 'monomeric monkey PRLR extracellular domain / ECD'; also called cynomolgus monkey PRLR extracellular domain; Monkey PRLR
T1 chain: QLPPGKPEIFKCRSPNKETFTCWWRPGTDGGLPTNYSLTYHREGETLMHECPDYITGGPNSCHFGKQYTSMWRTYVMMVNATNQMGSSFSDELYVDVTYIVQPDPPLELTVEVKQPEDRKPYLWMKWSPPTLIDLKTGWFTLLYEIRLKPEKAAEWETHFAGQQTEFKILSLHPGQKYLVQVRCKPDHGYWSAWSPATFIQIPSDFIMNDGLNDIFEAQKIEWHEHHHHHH

T2: extracellular segment of human PRLR protein with avi-(his)6 tag (hPRLR-ECD-avi-his) (human, UniProt P16471 25-234)
T2 construct: The assays say only 'monomeric human PRLR extracellular domain / ECD'; also called human PRLR extracellular domain; monomeric PRLR ECD
T2 sequence: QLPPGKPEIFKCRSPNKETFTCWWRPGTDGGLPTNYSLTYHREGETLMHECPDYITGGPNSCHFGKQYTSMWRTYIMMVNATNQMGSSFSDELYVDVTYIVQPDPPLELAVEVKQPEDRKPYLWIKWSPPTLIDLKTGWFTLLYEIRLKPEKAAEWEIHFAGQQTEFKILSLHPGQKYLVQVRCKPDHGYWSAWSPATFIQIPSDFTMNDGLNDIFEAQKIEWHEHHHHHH

T3: human PRLR expressed on cells (human, UniProt P16471 25-622)
T3 sequence: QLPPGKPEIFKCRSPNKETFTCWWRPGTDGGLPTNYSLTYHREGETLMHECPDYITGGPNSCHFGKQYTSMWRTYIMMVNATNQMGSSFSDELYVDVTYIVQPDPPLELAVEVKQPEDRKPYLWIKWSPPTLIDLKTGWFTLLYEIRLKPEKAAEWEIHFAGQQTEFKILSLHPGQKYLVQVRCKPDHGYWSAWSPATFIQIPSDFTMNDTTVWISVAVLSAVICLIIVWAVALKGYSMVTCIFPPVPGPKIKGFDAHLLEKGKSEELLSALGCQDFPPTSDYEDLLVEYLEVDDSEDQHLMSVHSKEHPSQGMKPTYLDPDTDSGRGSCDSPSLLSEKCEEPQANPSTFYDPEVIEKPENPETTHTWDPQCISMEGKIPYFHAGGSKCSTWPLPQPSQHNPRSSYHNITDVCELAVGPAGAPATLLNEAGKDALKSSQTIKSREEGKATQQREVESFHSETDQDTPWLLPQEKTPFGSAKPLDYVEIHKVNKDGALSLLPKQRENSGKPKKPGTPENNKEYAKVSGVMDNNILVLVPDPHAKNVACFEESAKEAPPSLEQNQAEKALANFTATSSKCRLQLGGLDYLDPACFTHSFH


Key:
[1] = target: T1, extracellular segment of the PRLR …; assay: ELISA, coated antigen 1 ug/mL
[2] = target: T4, recombinant mesothelin protein with the same tag; assay: ELISA, coated antigen 1 ug/mL, antibody 10 ug/mL
T4 construct: Control antigen of the species-specific ELISA; also called Control protein

[3] = target: T1, extracellular segment of the PRLR …; assay: ELISA, coated antigen 1 ug/mL, antibody 10 ug/mL
[4] = target: T2, extracellular segment of human PRLR …; assay: BLI epitope binning on biotinylated human PRLR ECD, 100 nM each; competitor: P-PR-C05H-v2; which axis is the first antibody is not stated
[5] = target: T2, extracellular segment of human PRLR …; assay: BLI epitope binning on biotinylated human PRLR ECD, 100 nM each; competitor: HP-PR01D12-v; which axis is the first antibody is not stated
[6] = target: T1, extracellular segment of the PRLR …; assay: BLI, biotinylated monomeric PRLR ECD on streptavidin sensor, antibody 3.125-100 nM in solution, 1:1 fit
[7] = target: T2, extracellular segment of human PRLR …; assay: as above
[8] = target: T2, extracellular segment of human PRLR …; assay: BLI epitope binning on biotinylated human PRLR ECD, 100 nM each; competitor: P-PR-C07H-v; which axis is the first antibody is not stated
[9] = target: T3, human PRLR expressed on cells; assay: cell-based or functional assay
[10] = target: T2, extracellular segment of human PRLR …; assay: BLI (Octet), antibody on Protein A sensor, monomeric PRLR ECD in solution, 1:1 fit
[11] = target: T2, extracellular segment of human PRLR …; assay: ELISA, coated antigen 1 ug/mL, antibody 10 ug/mL

| Binder | binding result [1] | absorbance at 450nm [2] | absorbance at 450nm [3] | ratio of the binding signal of the second antibody to the reference [4] | ratio of the binding signal of the second antibody to the reference [5] | Kd [6] | koff [6] | kon [6] | Kd [7] | koff [7] | kon [7] | ratio of the binding signal of the second antibody to the reference [8] | Blocking percentage (%) of 100 nM antibody (STAT5 luciferase reporter) [9] | Kd [10] | koff [10] | kon [10] | absorbance at 450nm [11] |
| --- | --- | --- | --- | --- | --- | --- | --- | --- | --- | --- | --- | --- | --- | --- | --- | --- | --- |
| HP-PR01B01 (antibody, V domains shown, also called Antibody No. 23) VH: EVHLVESGPDLVKPSQSLSLTCTVTGYSITSGYNWHWIRQFPGNKLEWMGYIHYSGSTKYDPSLKSRISFTRDTSRNQFFLQLNSVTTEDRATYYCARSEAGGYSWFAYWGQGTLVTVSA VL: DIVMTQSPAIMSASPGEKVTMACSASSSVNYMHWYQQKSGTSPKRWIYDTSKLASGVPARFSGSGSGTSYSLTISSMEAEDAATYYCQQWSSNPLTFGAGTKLELK | no binding (tested: 10 µg/mL) | 0.076 | 0.077 | – | – | – | – | – | – | – | – | – | – | – | – | – | – |
| P-PR-C05H-v2 (antibody, V domains shown, Humanized antibody from P-PR-C05H; also called Antibody No. 25; Anti-P-PR-C05H-v2) VH: EVQLVQSGAEVKKPGASVKVSCKASGFTFTTFWVHWVRQAPGQGLEWIGNIAPGSTSTNYAQKFQGRATLTVDTSISTAYMELSSLRSEDTAVYYCIRHSGNYFNAMDYWGQGTLVTVSS VL: DIVMTQSPLSLPVTPGEPASISCRSSKSLLHSNGNTYLYWFLQKPGQSPQLLIYRMSNRASGVPDRFSGSGSGTDFTLKISRVEAEDVGVYYCMQHLEYPLTFGQGTKVEIK | – | – | – | 11.2% | 15.5% | < 1 pM | 4.08e-07 s⁻¹ | 1.04e+06 M⁻¹ s⁻¹ | < 1 pM | 5.03e-07 s⁻¹ | 937000 M⁻¹ s⁻¹ | 35% | 17.3% | – | – | – | – |
| P-PR-C07H-v (antibody, V domains shown, Humanized antibody from P-PR-C07H; also called Antibody No. 26; hP-PR-C07H-v) VH: EVQLVQSGAEVKKPGSSVKVSCKASGYTFTNNWLAWIRQAPGQGLEWIGDIYPGGVYTNYNQKFQGRATLTADTSTSTAYMELSSLRSEDTAVYFCYYGDFWSAYWGQGTLVTVSS VL: DIVMTQSPLSLPVTPGEPASISCRSSKSLLHSNGNTYLYWFLQKPGQSPQLLIYRMSNRASGVPDRFSGSGSGTDFTLKISRVEAEDVGVYYCMQHLEYPLTFGQGTKVEIK | – | – | – | 52.7% | 49.8% | < 1 pM | 4.19e-07 s⁻¹ | 663000 M⁻¹ s⁻¹ | 3940 pM | 0.0032 s⁻¹ | 813000 M⁻¹ s⁻¹ | 13.4% | 100% | – | – | – | – |
| HP-PR01D12-v (antibody, V domains shown, also called Antibody No. 27; hHP-PR01D12-v) VH: EVQLVESGGGLVQPGGSLRLSCAASGFTFSSFGMNWVRQAPGKGLEWVAYISSGSSIIYYADSVKGRFTISRDNSKNTLYLQMNSLRAEDTAVYYCTRFYGYIPFDYWGQGTLVTVSS VL: DIQMTQSPSSLSASVGDRVTITCRASSSLIYLHWYQQKPGKAPKLWIYDTSKLASGVPSRFSGSGSGNDYTLTISSLQPEDFATYYCFQGSGYPLTFGQGTKVEIK | – | – | – | 9.2% | 14.4% | < 1 pM | 3.43e-07 s⁻¹ | 453000 M⁻¹ s⁻¹ | 1.13 pM | 4.88e-07 s⁻¹ | 431000 M⁻¹ s⁻¹ | 31.8% | 46.7% | – | – | – | – |
| HP-PR02H02 (antibody, V domains shown, also called Antibody No. 21) VH: EVMLVESGGGLVKPGGSLKLACAASGFTFSSYTMSWVRQTPEKRLEWVATISSGGSYTYYPDSVKGRFTISRDNAKNTLYLQLSSLKSEDTAMYYCTRDRYYSTTPDWYFDVWGAGTTLTVSS VL: DIVITQSPATLSVTPGDSVSLSCRATQIIFNNLHWYQQKSHESPRLLITYTSQSISGIPSRFSGSGSGTDFTLTINSVETEDFGMYFCQQSNTWPRTFGGGTKLEIK | no binding (tested: 10 µg/mL) | 0.076 | 0.097 | – | – | – | – | – | – | – | – | – | – | – | – | – | – |
| P-PR-C07H (antibody, V domains shown, also called Antibody No. 5) VH: EVQLQQSGAELVRPGTSVQISCKASGYTFTNNWLAWIKQRPGHGLEWIGDIYPGGVYTNYNEKFKGKATLTADTSSSTAYMQLSSLTSEDSAVYFCYYGDFWSAYWGQGTLVTVSA VL: DIVMTQAAPSVPVTPGESVSISCRSSKSLLHSNGNTYLYWFLQRPGQSPQLLIYRMSNLASGVPDRFSGSGSGTAFTLRISRVEAEDVGVYYCMQHLEYPLTFGAGTKLELK | – | 0.062 | – | – | – | – | – | – | – | – | – | – | – | 3640 pM | 0.000386 s⁻¹ | 106000 M⁻¹ s⁻¹ | 2.29 |
